Experimental data taken from patent US20080274950A1 (BABRAHAM INSTITUTE, published 2008).

T1: human N-cadherin naturally expressed on DX3 melanoma cells (human, UniProt P19022 160-906)
T1 construct: also called DX3 Cells; N-cadherin+ve DX3 melanoma cells
T1 sequence: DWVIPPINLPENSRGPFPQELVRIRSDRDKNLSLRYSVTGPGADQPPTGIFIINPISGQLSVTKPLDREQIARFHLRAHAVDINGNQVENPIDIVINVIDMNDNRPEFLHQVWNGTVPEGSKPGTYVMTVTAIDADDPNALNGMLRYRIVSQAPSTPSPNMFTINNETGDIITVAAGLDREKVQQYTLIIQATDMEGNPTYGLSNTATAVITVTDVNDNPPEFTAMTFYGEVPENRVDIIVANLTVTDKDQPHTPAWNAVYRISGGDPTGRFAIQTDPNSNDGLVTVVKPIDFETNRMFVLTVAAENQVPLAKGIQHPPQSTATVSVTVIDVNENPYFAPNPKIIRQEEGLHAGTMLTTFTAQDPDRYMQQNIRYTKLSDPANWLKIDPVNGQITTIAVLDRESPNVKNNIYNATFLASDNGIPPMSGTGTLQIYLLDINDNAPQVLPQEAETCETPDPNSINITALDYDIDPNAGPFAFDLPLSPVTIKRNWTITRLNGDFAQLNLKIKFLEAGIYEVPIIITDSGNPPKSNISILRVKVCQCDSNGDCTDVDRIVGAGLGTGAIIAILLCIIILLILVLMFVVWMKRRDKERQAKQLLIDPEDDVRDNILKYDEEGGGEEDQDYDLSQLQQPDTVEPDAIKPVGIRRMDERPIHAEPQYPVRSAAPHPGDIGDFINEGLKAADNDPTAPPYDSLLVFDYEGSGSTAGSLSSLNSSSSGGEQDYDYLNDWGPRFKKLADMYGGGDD

T2: full length chicken N-cadherin with the N-terminus extended by two glycine residues (GG) expressed on K562 … (chicken, UniProt P10288 165-912)
T2 construct: whole, on cells; also called cells expressing the GG N-terminal extension mutant; K562 GG
T2 sequence: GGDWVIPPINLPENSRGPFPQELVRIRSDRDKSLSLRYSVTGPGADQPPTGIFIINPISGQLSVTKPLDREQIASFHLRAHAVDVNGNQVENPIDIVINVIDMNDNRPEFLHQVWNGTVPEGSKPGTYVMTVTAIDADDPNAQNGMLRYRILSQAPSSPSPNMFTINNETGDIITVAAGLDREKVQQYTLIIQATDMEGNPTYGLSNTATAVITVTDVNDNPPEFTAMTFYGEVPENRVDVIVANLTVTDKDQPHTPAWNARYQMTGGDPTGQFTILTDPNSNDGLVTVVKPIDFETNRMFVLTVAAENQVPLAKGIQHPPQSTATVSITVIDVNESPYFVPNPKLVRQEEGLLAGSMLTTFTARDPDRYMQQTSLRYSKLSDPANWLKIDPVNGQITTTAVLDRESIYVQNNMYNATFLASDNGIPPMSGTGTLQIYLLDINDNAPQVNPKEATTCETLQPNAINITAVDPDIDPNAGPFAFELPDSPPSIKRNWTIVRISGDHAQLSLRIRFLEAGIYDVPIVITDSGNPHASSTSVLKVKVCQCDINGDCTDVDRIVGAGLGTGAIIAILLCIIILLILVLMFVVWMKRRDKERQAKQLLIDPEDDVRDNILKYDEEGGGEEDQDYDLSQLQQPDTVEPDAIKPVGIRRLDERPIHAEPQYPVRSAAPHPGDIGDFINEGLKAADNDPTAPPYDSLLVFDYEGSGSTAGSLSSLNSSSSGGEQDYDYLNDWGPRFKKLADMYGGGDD


Experiments:
[1] = molecular target: the molecule itself; assay: disulphide-bonded cis-dimers on the cell surface; non-reducing SDS-PAGE and immunoblot
[2] = molecular target: T1, human N-cadherin naturally expressed on …; assay: adhesion of DX3 cells to coated monomeric N-cadherin-Fc, oxidising buffer
Procedure: Monomeric or dimeric N-cadherin-Fc fusion protein in Cos cell supernatants was added as described for the ELISA assay. DX3 Cells, a human melanoma cell line which expresses N-cadherin, were dissociated with Cell Dissociation Solution (Sigma, code C5789), resuspended in HBSS with 2% FCS and assessed for adhesion to wild type or mutant N-cadherin-Fc as previously described (Corps et al., 2001). Microscopic examination established that the cells were present as a single cell suspension as they settled onto the plate. For assays conducted in reducing conditions, 10 mM DTT was present during the adhesion and washing steps. Determinations were conducted in triplicate and results are presented as mean +/−sem.

[3] = molecular target: T2, full length chicken N-cadherin with the …; assay: adhesion of K562 transfectants to coated N-cadherin Fc
Procedure: Adhesion tests were conducted substantially as described in Example 1. Briefly, K562 Cells or L cells transfected with wild type or mutant N-cadherin were allowed to settle for 45 minutes at 37° C. onto N-cadherin Fc fusion proteins coated at 1 μg/ml to a 96 well plate. Non-adherent cells were then washed off and residual adherent cells were quantitated by measuring acid phosphatase activity. Assays were conducted in quadruplicate and results are expressed as % cells adhering +/−SEM.

[4] = molecular target: the molecule itself; assay: bead aggregation assay, 1.25 mM CaCl2
Procedure: Dynabeads (Dynal Biotech) coupled to Protein A were coated with N-cadherin Fc at 1 μg/ml in calcium and magnesium-free HBSS containing 0.1% Tween 20, 1% FCS and 4 mM EDTA. Eppendorf tubes containing beads and fusion protein were rotated slowly for 1 hour at room temperature to allow binding to take place. The beads were then washed in the above assay buffer lacking EDTA and then resuspended in the same buffer supplemented with 1.25 mM CaCl₂. Beads were allowed to aggregate in a volume of 100 μl for 2 hours at 37° C. by slow rotation, in an eppendorf tube, at approximately 20 rpm. Aggregation was then assessed by light microscopy.
In the experiments described so far in this example, disruption of the salt bridge prevented intramolecular docking of Trp 2 in one or both components of the dimer. In an alternative strategy to prevent intramolecular docking, we removed Trp2 by introducing the mutation W2G or blocked the hydrophobic acceptor pocket with an isoleucine side chain projecting into the cavity using the mutation A801. N-cadherin Fc fusion proteins with these mutations were then tested against our panel of K562 transfectants (FIG. 17a). In keeping with the explanation given in FIG. 5, the W2G mutant acted as a strand acceptor and therefore adhered strongly to the E89A mutant whereas the A80I mutant was a strand donor and adhered to the GG extension mutant. […] In contrast, beads coated with the W2G or A801 mutants and tested separately clustered in twos and threes, whereas beads coated with the negative control mutant, D134A, were entirely monodisperse. To test whether all five extracellular domains of N-cadherin (EC1-EC5) are necessary for the strong adhesive interaction between the complementary mutants, we compared the adhesive activity of the W2G mutant prepared as a full length (EC1-EC5) Fc fusion protein with that of the same mutant prepared as a truncated construct containing only cadherin domains EC1 and EC2.

Binder	binding result [1]	binding result [3]	also measured
full length chicken N-cadherin with the mutation D1C expressed on K562 cells (receptor, UniProt P10288 165-912, looked up, whole, on cells; also called D1C cells; K562 D1C) CWVIPPINLPENSRGPFPQELVRIRSDRDKSLSLRYSVTGPGADQPPTGIFIINPISGQLSVTKPLDREQIASFHLRAHAVDVNGNQVENPIDIVINVIDMNDNRPEFLHQVWNGTVPEGSKPGTYVMTVTAIDADDPNAQNGMLRYRILSQAPSSPSPNMFTINNETGDIITVAAGLDREKVQQYTLIIQATDMEGNPTYGLSNTATAVITVTDVNDNPPEFTAMTFYGEVPENRVDVIVANLTVTDKDQPHTPAWNARYQMTGGDPTGQFTILTDPNSNDGLVTVVKPIDFETNRMFVLTVAAENQVPLAKGIQHPPQSTATVSITVIDVNESPYFVPNPKLVRQEEGLLAGSMLTTFTARDPDRYMQQTSLRYSKLSDPANWLKIDPVNGQITTTAVLDRESIYVQNNMYNATFLASDNGIPPMSGTGTLQIYLLDINDNAPQVNPKEATTCETLQPNAINITAVDPDIDPNAGPFAFELPDSPPSIKRNWTIVRISGDHAQLSLRIRFLEAGIYDVPIVITDSGNPHASSTSVLKVKVCQCDINGDCTDVDRIVGAGLGTGAIIAILLCIIILLILVLMFVVWMKRRDKERQAKQLLIDPEDDVRDNILKYDEEGGGEEDQDYDLSQLQQPDTVEPDAIKPVGIRRLDERPIHAEPQYPVRSAAPHPGDIGDFINEGLKAADNDPTAPPYDSLLVFDYEGSGSTAGSLSSLNSSSSGGEQDYDYLNDWGPRFKKLADMYGGGDD	binds	–	–
full length chicken N-cadherin with the mutation D27C expressed on K562 cells (receptor, UniProt P10288 165-912, looked up, whole, on cells; also called K562 D27C) DWVIPPINLPENSRGPFPQELVRIRSCRDKSLSLRYSVTGPGADQPPTGIFIINPISGQLSVTKPLDREQIASFHLRAHAVDVNGNQVENPIDIVINVIDMNDNRPEFLHQVWNGTVPEGSKPGTYVMTVTAIDADDPNAQNGMLRYRILSQAPSSPSPNMFTINNETGDIITVAAGLDREKVQQYTLIIQATDMEGNPTYGLSNTATAVITVTDVNDNPPEFTAMTFYGEVPENRVDVIVANLTVTDKDQPHTPAWNARYQMTGGDPTGQFTILTDPNSNDGLVTVVKPIDFETNRMFVLTVAAENQVPLAKGIQHPPQSTATVSITVIDVNESPYFVPNPKLVRQEEGLLAGSMLTTFTARDPDRYMQQTSLRYSKLSDPANWLKIDPVNGQITTTAVLDRESIYVQNNMYNATFLASDNGIPPMSGTGTLQIYLLDINDNAPQVNPKEATTCETLQPNAINITAVDPDIDPNAGPFAFELPDSPPSIKRNWTIVRISGDHAQLSLRIRFLEAGIYDVPIVITDSGNPHASSTSVLKVKVCQCDINGDCTDVDRIVGAGLGTGAIIAILLCIIILLILVLMFVVWMKRRDKERQAKQLLIDPEDDVRDNILKYDEEGGGEEDQDYDLSQLQQPDTVEPDAIKPVGIRRLDERPIHAEPQYPVRSAAPHPGDIGDFINEGLKAADNDPTAPPYDSLLVFDYEGSGSTAGSLSSLNSSSSGGEQDYDYLNDWGPRFKKLADMYGGGDD	binds	–	–
monomeric chicken N-cadherin-Fc with the mutation D27C (Fc fusion, UniProt P10288 165-728, looked up, extracellular domain; not shown: hinge region, CH2 and CH3 domains of human IgG1 heavy chain (vector pIgSig)) DWVIPPINLPENSRGPFPQELVRIRSCRDKSLSLRYSVTGPGADQPPTGIFIINPISGQLSVTKPLDREQIASFHLRAHAVDVNGNQVENPIDIVINVIDMNDNRPEFLHQVWNGTVPEGSKPGTYVMTVTAIDADDPNAQNGMLRYRILSQAPSSPSPNMFTINNETGDIITVAAGLDREKVQQYTLIIQATDMEGNPTYGLSNTATAVITVTDVNDNPPEFTAMTFYGEVPENRVDVIVANLTVTDKDQPHTPAWNARYQMTGGDPTGQFTILTDPNSNDGLVTVVKPIDFETNRMFVLTVAAENQVPLAKGIQHPPQSTATVSITVIDVNESPYFVPNPKLVRQEEGLLAGSMLTTFTARDPDRYMQQTSLRYSKLSDPANWLKIDPVNGQITTTAVLDRESIYVQNNMYNATFLASDNGIPPMSGTGTLQIYLLDINDNAPQVNPKEATTCETLQPNAINITAVDPDIDPNAGPFAFELPDSPPSIKRNWTIVRISGDHAQLSLRIRFLEAGIYDVPIVITDSGNPHASSTSVLKVKVCQCDINGDCTDVDRIVGAGLGT	–	–	binding result [2]: binds
chicken N-cadherin Fc fusion protein with the pocket-blocking mutation A80I (Fc fusion, UniProt P10288 165-728, looked up, extracellular domain; also called A80I mutant; not shown: hinge region, CH2 and CH3 domains of human IgG1 heavy chain (vector pIgSig)) DWVIPPINLPENSRGPFPQELVRIRSDRDKSLSLRYSVTGPGADQPPTGIFIINPISGQLSVTKPLDREQIASFHLRAHIVDVNGNQVENPIDIVINVIDMNDNRPEFLHQVWNGTVPEGSKPGTYVMTVTAIDADDPNAQNGMLRYRILSQAPSSPSPNMFTINNETGDIITVAAGLDREKVQQYTLIIQATDMEGNPTYGLSNTATAVITVTDVNDNPPEFTAMTFYGEVPENRVDVIVANLTVTDKDQPHTPAWNARYQMTGGDPTGQFTILTDPNSNDGLVTVVKPIDFETNRMFVLTVAAENQVPLAKGIQHPPQSTATVSITVIDVNESPYFVPNPKLVRQEEGLLAGSMLTTFTARDPDRYMQQTSLRYSKLSDPANWLKIDPVNGQITTTAVLDRESIYVQNNMYNATFLASDNGIPPMSGTGTLQIYLLDINDNAPQVNPKEATTCETLQPNAINITAVDPDIDPNAGPFAFELPDSPPSIKRNWTIVRISGDHAQLSLRIRFLEAGIYDVPIVITDSGNPHASSTSVLKVKVCQCDINGDCTDVDRIVGAGLGT	–	binds	binding result [4]: binds
chicken N-cadherin Fc fusion protein with the mutations E89A and D134A (Fc fusion, UniProt P10288 165-728, looked up, extracellular domain; also called D134A in combination with E89A; not shown: hinge region, CH2 and CH3 domains of human IgG1 heavy chain (vector pIgSig)) DWVIPPINLPENSRGPFPQELVRIRSDRDKSLSLRYSVTGPGADQPPTGIFIINPISGQLSVTKPLDREQIASFHLRAHAVDVNGNQVANPIDIVINVIDMNDNRPEFLHQVWNGTVPEGSKPGTYVMTVTAIAADDPNAQNGMLRYRILSQAPSSPSPNMFTINNETGDIITVAAGLDREKVQQYTLIIQATDMEGNPTYGLSNTATAVITVTDVNDNPPEFTAMTFYGEVPENRVDVIVANLTVTDKDQPHTPAWNARYQMTGGDPTGQFTILTDPNSNDGLVTVVKPIDFETNRMFVLTVAAENQVPLAKGIQHPPQSTATVSITVIDVNESPYFVPNPKLVRQEEGLLAGSMLTTFTARDPDRYMQQTSLRYSKLSDPANWLKIDPVNGQITTTAVLDRESIYVQNNMYNATFLASDNGIPPMSGTGTLQIYLLDINDNAPQVNPKEATTCETLQPNAINITAVDPDIDPNAGPFAFELPDSPPSIKRNWTIVRISGDHAQLSLRIRFLEAGIYDVPIVITDSGNPHASSTSVLKVKVCQCDINGDCTDVDRIVGAGLGT	–	no binding (tested: Fc fusion protein coated at 1 µg/ml)	–
